Measurements taken from US20220145295A1, “ENZYMATIC RNA SYNTHESIS” (President and Fellows of Harvard College, priority 2018, published 2022).

System: poly dT-15-mer initiator oligonucleotide
Assay: Initial activity screen of polymerase μ R387K with divalent cations (rate of ssDNA generation)
Type: biochemical
Conditions: 200 μM dNTP, 37° C.
Procedure: FIGS. 3A to 3C. […] Denaturing gel electrophoresis analysis of dATP incorporation (FIG. 3B) and rATP incorporation (FIG. 3C) at nucleotide concentrations of 200-50 μM and 5.0-0.62 mM for dATP and rATP, respectively. These reactions were supplemented with 0.25 mM Mn^2+ and Mg^2+. The control reaction consisted of all reaction components except nucleotide. For all reactions, the initiator oligonucleotide was a HPLC-purified poly dT-15-mer.
Human polymerase μ R387K was expressed and purified as described in the materials and methods. Because it was unknown under which reaction conditions polymerase μ R387K functioned optimally, several reaction parameters were initially evaluated. […] Thus, polymerase p R387K, a confirmed DNA/RNA-directed polymerase, is useful for controlled enzymatic RNA synthesis.
Expressed proteins with terminal transferase activity were screened by determining the rate of RNA generation in terms of total RNA concentration and the length/distribution of RNA produced by the protein after incubation with natural rNTPs. […] The length of the RNA produced in these reactions was determined by comparing products to a 100-nt ssDNA ladder (Simplex Biosciences) using a 15% TBE-Urea denaturing gel (Thermo EC6885) following the manufacturer's protocol. […]

B1: polymerase μ R387K: Human polymerase μ with point mutation R387K, expressed and purified; SEQ ID NO: 1 (protein, listed as Homo sapiens)
chain: MLPKRRRARVGSPSGDAASSTPPSTRFPGVAIYLVEPRMGRSRRAFLTGLARSKGFRVLDACSSEATHVVMEETSAEEAVSWQERRMAAAPPGCTPPALLDISWLTESLGAGQPVPVECRHRLEVAGPRKGPLSPAWMPAYACQRPTPLTHHNTGLSEALEILAEAAGFEGSEGRLLTFCRAASVLKALPSPVTTLSQLQGLPHFGEHSSRVVQELLEHGVCEEVERVRRSERYQTMKLFTQIFGVGVKTADRWYREGLRTLDDLREQPQKLTQQQKAGLQHHQDLSTPVLRSDVDALQQVVEEAVGQALPGATVTLTGGFRRGKLQGHDVDFLITHPKEGQEAGLLPRVMCRLQDQGLILYHQHQHSCCESPTRLAQQSHMDAFEKSFCIFRLPQPPGAAVGGSTRPCPSWKAVRVDLVVAPVSQFPFALLGWTGSKLFQRELRRFSRKEKGLWLNSHGLFDPEQKTFFQAASEEDIFRHLGLEYLPPEQRNA
rate of ssDNA generation (0.25 mM Co^2+, worst rate): ~100 RFU/minute | rate of ssDNA generation (combination of Mn^2+ and Mg^2+ at 0.25 mM, highest rate): ~650 RFU/minute
